pKd: −log10 of the molar value.
System: Lsr2 (Mycobacterium tuberculosis H37Rv)
Assay: EMSA

Row | Substance | pKd
1 | 16S rRNA gene 200-bp amplicon | 6.00
2 | PiniBAC 227-bp amplicon | 6.00

Reference: publication PMC1894825
